The source of these data is patent US20160145343A1.

Assay [1] concerns the target BSA (UniProt P02769). Kind of assay: ELISA on coated BSA, antibody 0.01 mg/ml, mean of 3.
In assay [2] the target is Synthetic peptide …. The experiment in a line: ELISA on coated peptide, antibody 0.01 mg/ml, mean of 3.
Assay [3] concerns the target Synthetic peptide (…)2. The description is as above.
Assay [4] deals with Normal MUC1 on non-transformed MCF-10A cells and on normal tissue (human) (UniProt P15941). The experiment in a line: flow cytometry, MCF10a cells.
The target of assay [5] is SEQ ID NO: 346 glycopeptide with TF-antigen at Thr9. The experiment in a line: ELISA on coated glycopeptide, antibody 0.01 mg/ml, mean of 3.
In assay [6] the target is SEQ ID NO: 346 glycopeptide with TF-antigen at Thr4 and Thr9. The assay is described as above.
Assay [7] has as its target SEQ ID NO: 346 glycopeptide with TF-antigen at Ser5. The description is as above.
The target in assay [8] is SEQ ID NO: 346 glycopeptide with TF-antigen at Thr16. The description is as above.
Assay [9] deals with SEQ ID NO: 346 glycopeptide with TF-antigen at Thr4. Described as above.
Assay [10] deals with SEQ ID NO: 346 glycopeptide with Tn-antigen at Thr4, Thr9 and Thr16. Described as above.
The target in assay [11] is Normal MUC1 on non-transformed MCF-10A cells and on normal tissue (human) (UniProt P15941). The experiment in a line: immunohistochemistry, colon tissue microarray, normal samples.
For assay [12] the target is unchanged. The experiment in a line: immunohistochemistry, colon tissue microarray.
Assay [13] has the same target. The experiment in a line: flow cytometry, MCF10a cells, secondary antibody only.

Chain of Synthetic peptide (…)2 (peptide, as listed by the source): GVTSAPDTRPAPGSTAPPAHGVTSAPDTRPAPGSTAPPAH
Chain of BSA (P02769 25-607 limits assumed): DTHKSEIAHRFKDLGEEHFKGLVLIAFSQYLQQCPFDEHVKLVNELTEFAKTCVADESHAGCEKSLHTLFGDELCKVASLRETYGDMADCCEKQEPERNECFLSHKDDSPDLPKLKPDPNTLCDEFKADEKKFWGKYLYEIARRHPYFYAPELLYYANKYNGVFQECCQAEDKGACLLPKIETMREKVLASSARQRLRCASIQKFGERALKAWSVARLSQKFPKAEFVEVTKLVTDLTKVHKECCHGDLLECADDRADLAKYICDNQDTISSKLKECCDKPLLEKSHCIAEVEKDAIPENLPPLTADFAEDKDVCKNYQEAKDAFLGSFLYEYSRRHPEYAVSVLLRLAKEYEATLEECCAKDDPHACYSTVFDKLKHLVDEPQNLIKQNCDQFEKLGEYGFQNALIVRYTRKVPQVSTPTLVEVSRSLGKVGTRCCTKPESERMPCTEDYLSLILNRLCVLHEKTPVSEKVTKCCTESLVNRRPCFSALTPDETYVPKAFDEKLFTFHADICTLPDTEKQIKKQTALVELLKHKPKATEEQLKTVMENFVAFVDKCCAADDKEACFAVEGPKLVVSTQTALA

As to “VU-3C6 (Abcam), mouse anti-MUC1 antibody”, the ELISA absorbance at 450 nm amounted to 0.2 absorbance in assay [1]; 1.5 absorbance in [2]; 2.3 absorbance in assay [3]; 2.4 absorbance in assay [5]; 2.4 absorbance in assay [6]; 2 absorbance in assay [7]. Besides, the ELISA absorbance at 450 nm was 1.5 absorbance in assay [8], 2 absorbance in [9] and 2.4 absorbance in assay [10]. This substance registered a percentage of APC+ stained cells in [4] of 99.2%.

“HMPV (BD Biosciences), mouse anti-MUC1 antibody” registered an MUC1+ samples stained (of 3 MUC1+ normal samples) in assay [11] of 3. Also, the samples MUC1+ by staining (of 6 normal samples) in assay [12] amounted to 3.

As for “VU-4H5 (Abnova), mouse anti-MUC1 antibody”, the ELISA absorbance at 450 nm stood at 0.1 absorbance in [1]; 1.9 absorbance in assay [2]; 2.5 absorbance in assay [3]; 0.1 absorbance in assay [5]; 0.1 absorbance in assay [6]; 1.8 absorbance in assay [7]. Also, the ELISA absorbance at 450 nm in assay [8] is 1.9 absorbance; in assay [9] it was 1.8 absorbance; in [10] it was 0.1 absorbance. This substance also had a percentage of APC+ stained cells in assay [4] of 3.85%.

On to “M-2nd. (APC-labeled secondary antibody only control for the mouse antibodies)”, for which, in assay [13], the percentage of APC+ stained cells is 0.6%.

Consider “Hu-2nd. (APC-labeled secondary antibody only control for the human antibodies)”, for which the percentage of APC+ stained cells in assay [13] was determined as 0.25%.
